We go through three substances from paper PMC4461315.

human complement Factor H (human), sequence (P08603 19-1231): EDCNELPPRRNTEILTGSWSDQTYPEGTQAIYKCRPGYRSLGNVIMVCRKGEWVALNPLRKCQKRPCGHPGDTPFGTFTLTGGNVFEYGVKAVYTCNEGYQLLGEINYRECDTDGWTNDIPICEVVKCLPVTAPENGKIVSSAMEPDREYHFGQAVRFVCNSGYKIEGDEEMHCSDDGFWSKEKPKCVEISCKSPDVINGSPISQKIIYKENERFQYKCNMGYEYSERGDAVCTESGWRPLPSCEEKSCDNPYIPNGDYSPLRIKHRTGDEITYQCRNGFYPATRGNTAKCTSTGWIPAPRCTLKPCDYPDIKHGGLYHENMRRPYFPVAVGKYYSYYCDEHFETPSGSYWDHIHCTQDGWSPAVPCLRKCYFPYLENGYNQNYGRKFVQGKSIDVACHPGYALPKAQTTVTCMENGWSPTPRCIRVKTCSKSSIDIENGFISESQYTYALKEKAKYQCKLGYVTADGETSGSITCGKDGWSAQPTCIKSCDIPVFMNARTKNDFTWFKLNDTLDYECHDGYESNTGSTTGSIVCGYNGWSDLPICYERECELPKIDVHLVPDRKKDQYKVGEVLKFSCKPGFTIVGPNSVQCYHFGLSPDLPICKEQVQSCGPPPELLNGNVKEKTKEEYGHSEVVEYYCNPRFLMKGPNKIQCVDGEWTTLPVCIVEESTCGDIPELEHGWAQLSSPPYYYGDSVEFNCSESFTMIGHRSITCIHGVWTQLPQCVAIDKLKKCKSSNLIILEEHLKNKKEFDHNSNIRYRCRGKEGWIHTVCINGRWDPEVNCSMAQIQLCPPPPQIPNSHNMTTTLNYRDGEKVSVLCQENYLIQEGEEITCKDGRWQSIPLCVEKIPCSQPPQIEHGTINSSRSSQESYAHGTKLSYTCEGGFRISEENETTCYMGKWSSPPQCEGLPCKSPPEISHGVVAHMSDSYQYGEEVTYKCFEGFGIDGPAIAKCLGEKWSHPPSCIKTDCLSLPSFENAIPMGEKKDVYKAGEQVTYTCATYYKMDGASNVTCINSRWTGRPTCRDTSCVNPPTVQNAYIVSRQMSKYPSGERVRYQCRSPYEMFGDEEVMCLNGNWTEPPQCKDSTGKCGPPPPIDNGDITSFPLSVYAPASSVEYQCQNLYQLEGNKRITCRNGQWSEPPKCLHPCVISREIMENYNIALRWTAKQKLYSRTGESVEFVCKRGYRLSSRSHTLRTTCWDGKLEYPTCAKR

This test concerns the target human complement Factor H (human) (UniProt P08603). Nature of the test: SPR.
“FHbp ID 1 E92K mutant, soluble recombinant (from UniProt Q9JXV4 20-274) (natural protein)”: the response units at 100 nM FHbp (response units) was less than 2.

Substance “FHbp ID 1 H248L mutant, soluble recombinant (from UniProt Q9JXV4 20-274) (natural protein)” showed a response units at 100 nM FHbp (response units) of less than 2.

With “FHbp ID 1 S223R mutant, soluble recombinant (from UniProt Q9JXV4 20-274) (natural protein)”, the response units at 100 nM FHbp (response units) was less than 2.
